± gives the standard deviation of the averaged measurements.
Assays:
[1] = test system: Saccharomyces cerevisiae; test: protein stability index of tFT-peptide fusion (C-terminal peptide) (PSI (0-1 scale)); higher = more stable (slower turnover)
Description: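 MPS profiling in S. cerevisiae of the tFT-X12 degron library: putative degron peptides plus stable controls, 12 aa, fused to the C-terminus of a sfGFP-mCherry timer. Cells are FACS-sorted into 8 mCherry/sfGFP bins and deep-sequenced. PSI runs from 0 (unstable) to 1 (stable). Backgrounds are wild type, das1Δ and doa10Δ at 30 °C, and wild type, das1Δ, cdc34-1 and cdc53-1 at 37 °C; 2-3 technical replicates each.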

[2] = test system: Saccharomyces cerevisiae; test: as above; conditions: genetic background: wild type; temperature: 30 C
[3] = genetic background: cdc34-1, temperature: 37 C
[4] = genetic background: cdc53-1, temperature: 37 C
[5] = genetic background: das1 deletion, temperature: 30 C
[6] = genetic background: das1 deletion, temperature: 37 C
[7] = genetic background: doa10 deletion, temperature: 30 C
[8] = genetic background: wild type, temperature: 30 C
[9] = genetic background: wild type, temperature: 37 C
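Further: PSI is a weighted mean of sequencing reads over stability bins, variants kept only with over 10 reads, mCherry proximal and sfGFP distal, peptide attached via GGGS linker.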

Sequence | protein stability index [1, 3] | protein stability index [1, 4] | protein stability index [1, 5] | protein stability index [1, 6] | protein stability index [1, 7] | protein stability index [1, 8] | protein stability index [1, 9] | protein stability index [2]
GGVVGRPWWYVG | 0.694 ± 0.023 | 0.79439 ± 0.00012 | 0.677 ± 0.014 | 0.795 ± 0.013 | 0.266 ± 0.015 | 0.301 ± 0.015 | 0.605 ± 0.017 | 0.425 ± 0.031
GIFVRIVCIDVA | 0.125 ± 0.0095 | 0.183 ± 0.0066 | 0.178 ± 0.032 | 0.302 ± 0.007 | 0.143 ± 0.0085 | 0.165 ± 0.021 | 0.2851 ± 0.0006 | 0.2651 ± 0.0024
GINYSNKKILVN | 0.574 ± 0.016 | 0.6729 ± 0.0015 | 0.493 ± 0.027 | 0.691 ± 0.026 | 0.278 ± 0.022 | 0.273 ± 0.033 | 0.57 ± 0.0072 | 0.444 ± 0.059
GLCSGTGARWLV | 0.703 ± 0.0096 | 0.7667 ± 0.0022 | 0.636 ± 0.027 | 0.749 ± 0.018 | 0.52 ± 0.013 | 0.516 ± 0.0084 | 0.701 ± 0.016 | 0.559 ± 0.086
GLPRASPLPIPV | 0.553 ± 0.032 | 0.591 ± 0.006 | 0.447 ± 0.021 | 0.6021 ± 0.0017 | 0.425 ± 0.01 | 0.443 ± 0.016 | 0.57 ± 0.0065 | 0.517 ± 0.048
GLRLRCPLLLSL | 0.354 ± 0.018 | 0.341 ± 0.018 | 0.315 ± 0.049 | 0.47 ± 0.011 | 0.507 ± 0.023 | 0.324 ± 0.013 | 0.425 ± 0.0045 | 0.383 ± 0.028
GLSGFLLLIVLY | 0.194 ± 0.027 | 0.256 ± 0.019 | 0.239 ± 0.02 | 0.417 ± 0.049 | 0.252 ± 0.0089 | 0.228 ± 0.035 | 0.35509 ± 0.00019 | 0.353 ± 0.026
GLWLCRGLVRAW | 0.349 ± 0.026 | 0.382 ± 0.021 | 0.299 ± 0.021 | 0.46 ± 0.009 | 0.253 ± 0.001 | 0.289 ± 0.021 | 0.438 ± 0.014 | 0.43 ± 0.04
GPFGVGALVCCM | 0.462 ± 0.016 | 0.4425 ± 0.00085 | 0.333 ± 0.032 | 0.503 ± 0.0066 | 0.304 ± 0.01 | 0.351 ± 0.017 | 0.4844 ± 0.00066 | 0.433 ± 0.0072
GPNWCSVCQGVG | 0.421 ± 0.03 | 0.477 ± 0.028 | 0.43 ± 0.011 | 0.4926 ± 0.0034 | 0.446 ± 0.0064 | 0.426 ± 0.013 | 0.4733 ± 0.00063 | 0.453 ± 0.015
GPPPAPSPTPSP | 0.661 ± 0.035 | 0.7253 ± 0.0049 | 0.676 ± 0.021 | 0.7217 ± 0.0055 | 0.685 ± 0.014 | 0.687 ± 0.015 | 0.699 ± 0.02 | 0.732 ± 0.023
GPTLLVSRIAVI | 0.506 ± 0.026 | 0.517 ± 0.024 | 0.368 ± 0.039 | 0.565 ± 0.011 | 0.137 ± 0.0051 | 0.162 ± 0.021 | 0.291 ± 0.015 | 0.249 ± 0.011
GQLIYQHIFILG | 0.662 ± 0.063 | 0.6481 ± 0.0016 | 0.47 ± 0.011 | 0.676 ± 0.025 | 0.312 ± 0.021 | 0.353 ± 0.021 | 0.5677 ± 0.0052 | 0.4678 ± 0.00024
GRPYHLCLFSCF | 0.646 ± 0.018 | 0.754 ± 0.013 | 0.646 ± 0.036 | 0.754 ± 0.024 | 0.333 ± 0.024 | 0.343 ± 0.027 | 0.577 ± 0.016 | 0.353 ± 0.021
GRRLGLLNLLSY | 0.649 ± 0.029 | 0.744 ± 0.0023 | 0.625 ± 0.013 | 0.724 ± 0.019 | 0.255 ± 0.016 | 0.305 ± 0.028 | 0.601 ± 0.027 | 0.456 ± 0.064
GRSVGVTMFKNG | 0.614 ± 0.059 | 0.7332 ± 0.0067 | 0.627 ± 0.017 | 0.73 ± 0.018 | 0.172 ± 0.019 | 0.206 ± 0.014 | 0.479 ± 0.016 | 0.3421 ± 0.0014
GRWLYSACVALN | 0.62 ± 0.072 | 0.71 ± 0.014 | 0.596 ± 0.022 | 0.7063 ± 0.0033 | 0.195 ± 0.0073 | 0.196 ± 0.026 | 0.4027 ± 0.0021 | 0.395 ± 0.017
GSRVICMVVATM | 0.546 ± 0.044 | 0.611 ± 0.016 | 0.463 ± 0.041 | 0.6078 ± 0.0058 | 0.419 ± 0.035 | 0.436 ± 0.02 | 0.582 ± 0.0029 | 0.488 ± 0.022
GTRREFVILYLF | 0.544 ± 0.026 | 0.675 ± 0.027 | 0.525 ± 0.016 | 0.694 ± 0.035 | 0.119 ± 0.0081 | 0.133 ± 0.035 | 0.101 ± 0.019 | 0.191 ± 0.0076
GVFISFFFVFRF | 0.154 ± 0.0055 | 0.173 ± 0.037 | 0.269 ± 0.035 | 0.373 ± 0.013 | 0.354 ± 0.017 | 0.237 ± 0.025 | 0.309 ± 0.033 | 0.308 ± 0.013

Sequence | protein stability index [1, 3] | protein stability index [1, 4] | protein stability index [1, 5] | protein stability index [1, 6] | protein stability index [1, 7] | protein stability index [1, 8] | protein stability index [1, 9] | protein stability index [2]
GVFRYKLILRKM | 0.527 ± 0.056 | 0.614 ± 0.018 | 0.586 ± 0.015 | 0.634 ± 0.017 | 0.269 ± 0.0066 | 0.272 ± 0.014 | 0.435 ± 0.012 | 0.337 ± 0.05
GVLHSKGPWFSG | 0.703 ± 0.028 | 0.757 ± 0.0099 | 0.652 ± 0.0073 | 0.75 ± 0.0095 | 0.65 ± 0.014 | 0.665 ± 0.014 | 0.72815 ± 0.0004 | 0.729 ± 0.017
GVLLLGSYQWVG | 0.306 ± 0.031 | 0.394 ± 0.021 | 0.368 ± 0.029 | 0.334 ± 0.0053 | 0.395 ± 0.008 | 0.373 ± 0.025 | 0.317 ± 0.0059 | 0.313 ± 0.007
GVWLRAVRGFGV | 0.706 ± 0.03 | 0.7586 ± 0.0013 | 0.646 ± 0.013 | 0.76107 ± 0.00069 | 0.652 ± 0.0083 | 0.6542 ± 0.0058 | 0.7403 ± 0.0064 | 0.738 ± 0.04
GWCLGFWCLLVC | 0.0399 ± 0.0089 | 0.0444 ± 0.0049 | 0.123 ± 0.02 | 0.156 ± 0.019 | 0.0958 ± 0.005 | 0.0537 ± 0.018 | 0.068 ± 0.014 | 0.118 ± 0.093
GWVVWLTGCLVF | 0.512 ± 0.028 | 0.592 ± 0.014 | 0.446 ± 0.022 | 0.586 ± 0.042 | 0.407 ± 0.0086 | 0.443 ± 0.017 | 0.621 ± 0.028 | 0.4592 ± 0.0025
GYRGRITRLVNG | 0.661 ± 0.03 | 0.715 ± 0.015 | 0.639 ± 0.0079 | 0.7422 ± 0.00086 | 0.14 ± 0.024 | 0.168 ± 0.021 | 0.369 ± 0.00097 | 0.29 ± 0.035
GYRYMWLWRLSA | 0.544 ± 0.027 | 0.706 ± 0.026 | 0.665 ± 0.036 | 0.762 ± 0.028 | 0.148 ± 0.0028 | 0.143 ± 0.032 | 0.235 ± 0.013 | 0.178 ± 0.095
HCLGWCFSRLSS | 0.654 ± 0.043 | 0.7199 ± 0.00078 | 0.653 ± 0.021 | 0.766 ± 0.0092 | 0.186 ± 0.013 | 0.206 ± 0.027 | 0.4302 ± 0.0015 | 0.289 ± 0.012
HIVYCSSEQIKC | 0.53 ± 0.048 | 0.6419 ± 0.0016 | 0.446 ± 0.026 | 0.589 ± 0.0063 | 0.482 ± 0.028 | 0.483 ± 0.029 | 0.56 ± 0.032 | 0.497 ± 0.0059
HLLMLAMVGFQC | 0.5752 ± 0.0029 | 0.688 ± 0.0015 | 0.475 ± 0.038 | 0.619 ± 0.02 | 0.424 ± 0.0061 | 0.454 ± 0.022 | 0.583 ± 0.025 | 0.487 ± 0.017
HVLGSIYWAIFV | 0.497 ± 0.02 | 0.493 ± 0.028 | 0.407 ± 0.024 | 0.563 ± 0.023 | 0.289 ± 0.0029 | 0.314 ± 0.03 | 0.499 ± 0.011 | 0.428 ± 0.011
IGFFFACFFSVF | 0.419 ± 0.057 | 0.444 ± 0.012 | 0.403 ± 0.021 | 0.518 ± 0.0099 | 0.352 ± 0.0041 | 0.363 ± 0.022 | 0.43 ± 0.019 | 0.442 ± 0.065
IGWKLNRIQKNI | 0.6858 ± 0.0052 | 0.735 ± 0.043 | 0.649 ± 0.028 | 0.728 ± 0.047 | 0.15 ± 0.021 | 0.193 ± 0.029 | 0.436 ± 0.011 | 0.326 ± 0.021
IGYLGSELRFVS | 0.688 ± 0.094 | 0.741 ± 0.011 | 0.626 ± 0.0078 | 0.762 ± 0.018 | 0.384 ± 0.017 | 0.434 ± 0.04 | 0.69 ± 0.012 | 0.514 ± 0.037
IISICLYFLVRC | 0.223 ± 0.003 | 0.326 ± 0.073 | 0.229 ± 0.027 | 0.391 ± 0.0067 | 0.212 ± 0.0074 | 0.212 ± 0.015 | 0.327 ± 0.0058 | 0.299 ± 0.045
IKKKKRKKIKAN | 0.634 ± 0.048 | 0.728 ± 0.019 | 0.65 ± 0.024 | 0.751 ± 0.015 | 0.199 ± 0.013 | 0.211 ± 0.017 | 0.291 ± 0.021 | 0.244 ± 0.043
IKWRCLFCVCVL | 0.477 ± 0.011 | 0.466 ± 0.012 | 0.429 ± 0.026 | 0.489 ± 0.0054 | 0.371 ± 0.0045 | 0.375 ± 0.014 | 0.453 ± 0.008 | 0.422 ± 0.043
ILFRRRLCCFLK | 0.349 ± 0.03 | 0.434 ± 0.0052 | 0.443 ± 0.019 | 0.536 ± 0.012 | 0.506 ± 0.021 | 0.396 ± 0.018 | 0.484 ± 0.021 | 0.4735 ± 0.0015
